Common to all, as to experiment: ITC
One data set deals with T1, yedK R162A (Escherichia coli (gene from BL21 …, UniProt P76318 2-222, R162A)).
T1 sequence: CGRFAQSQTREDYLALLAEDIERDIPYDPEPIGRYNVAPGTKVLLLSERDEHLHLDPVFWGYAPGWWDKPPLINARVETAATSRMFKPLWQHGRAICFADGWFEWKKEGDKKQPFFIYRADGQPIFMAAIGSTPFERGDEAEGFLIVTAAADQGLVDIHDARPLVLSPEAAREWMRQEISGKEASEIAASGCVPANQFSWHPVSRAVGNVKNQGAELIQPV

In the next data set the target is T2, yedK P40G (Escherichia coli (gene from BL21 …, UniProt P76318 2-222, P40G)).
T2 sequence: T1 sequence with P39G, A161R

The target of a further data set is T3, yedK R4A (Escherichia coli (gene from BL21 …, UniProt P76318 2-222, R4A)).
T3 sequence: T1 sequence with R3A, A161R

In a further data set the target is T4, yedK K113A (Escherichia coli (gene from BL21 …, UniProt P76318 2-222, K113A)).
T4 sequence: T1 sequence with K112A, A161R

Another data set addresses T5, yedK W106A (Escherichia coli (gene from BL21 …, UniProt P76318 2-222, W106A)).
T5 sequence: T1 sequence with W105A, A161R

For the next data set, the target named is T6, yedK K70A (Escherichia coli (gene from BL21 …, UniProt P76318 2-222, K70A)).
T6 sequence: T1 sequence with K69A, A161R

The next data set addresses T7, yedK S84A (Escherichia coli (gene from BL21 …, UniProt P76318 2-222, S84A)).
T7 sequence: T1 sequence with S83A, A161R

Another data set deals with T8, yedK E105A (Escherichia coli (gene from BL21 …, UniProt P76318 2-222, E105A)).
T8 sequence: T1 sequence with E104A, A161R

Substitutions are numbered along the chain they refer to.

From article PMC6821365 come the findings set out here.

Broadly, the Kd is the constant that tells how readily two partners part at equilibrium. The low end stands for tighter binding, the high end for weaker binding. On to CGGTCGATTC (ssDNA) [ssDNA], for which the binding result in the data set with yedK R162A is listed as “no binding”. Further, the Kd was 10.8 µM with yedK P40G; 34.6 µM with yedK R4A; 2.1 µM with yedK K113A; 18.7 µM in the data set with yedK W106A; 4 µM with yedK K70A; 10.8 µM with yedK S84A. This molecule also yielded an equilibrium dissociation constant (Kd) with yedK E105A of 0.12 µM.
